Test results from patent US20250368754A1 (KANAPH THERAPEUTICS, published 2025).

B1: T3.06 (anti-hu FAP/hu scLIGHT3(195-198), hu IgG1 DANG) (bispecific antibody)
heavy: QVQLVQSGAEVKKPGASVKVSCKTSRYTFTEYTIHWVRQAPGQRLEWIGGINPNNGIPNYNQKFKGRVTITVDTSASTAYMELSSLRSEDTAVYYCARRRIAYGYDEGHAMDYWGQGTLVTVSSASTKGPSVFPLAPSSKSTSGGTAALGCLVKDYFPEPVTVSWNSGALTSGVHTFPAVLQSSGLYSLSSVVTVPSSSLGTQTYICNVNHKPSNTKVDKKVEPKSCDKTHTCPPCPAPELLGGPSVFLFPPKPKDTLMISRTPEVTCVVVAVSHEDPEVKFNWYVDGVEVHNAKTKPREEQYGSTYRVVSVLTVLHQDWLNGKEYKCKVSNKALPAPIEKTISKAKGQPREPQVYTLPPSRDELTKNQVSLWCLVKGFYPSDIAVEWESNGQPENNYKTTPPVLDSDGSFFLYSKLTVDKSRWQQGNVFSCSVMHEALHNHYTQKSLSLSPGK
light: not shown
chain: not shown
notes: Knob-into-hole
B2: T3.05 (anti-hu FAP/hu scLIGHT3(226-231), hu IgG1 DANG) (bispecific antibody)
heavy: B1 heavy
light: not shown
chain: not shown
notes: Knob-into-hole
B3: T3.15 (anti-hu FAP/hu scLIGHT-LIGHT(L118K, G119E)2, hu IgG1 DANG) (bispecific antibody)
heavy: B1 heavy
light: not shown
chain: not shown
B4: T3.16 (anti-hu FAP/hu scLIGHT(226-231)-LTb2, hu IgG1 DANG) (bispecific antibody)
heavy: B1 heavy
light: not shown
chain: not shown
notes: Knob-into-hole
B5: T3.17 (anti-hu FAP/hu scLIGHT(195-198)-LTb2, hu IgG1 DANG) (bispecific antibody)
heavy: B1 heavy
light: not shown
chain: not shown
notes: Knob-into-hole

Tests used:
[1] = target: T1, human FAP on HEK293-hFAP cells (human, UniProt Q12884 1-760); test: flow cytometry on HEK293-hFAP cells, 1 µg protein, anti-human IgG detection
T1 construct: whole, on cells; also called human FAP-expressing cell line
T1 sequence (looked up): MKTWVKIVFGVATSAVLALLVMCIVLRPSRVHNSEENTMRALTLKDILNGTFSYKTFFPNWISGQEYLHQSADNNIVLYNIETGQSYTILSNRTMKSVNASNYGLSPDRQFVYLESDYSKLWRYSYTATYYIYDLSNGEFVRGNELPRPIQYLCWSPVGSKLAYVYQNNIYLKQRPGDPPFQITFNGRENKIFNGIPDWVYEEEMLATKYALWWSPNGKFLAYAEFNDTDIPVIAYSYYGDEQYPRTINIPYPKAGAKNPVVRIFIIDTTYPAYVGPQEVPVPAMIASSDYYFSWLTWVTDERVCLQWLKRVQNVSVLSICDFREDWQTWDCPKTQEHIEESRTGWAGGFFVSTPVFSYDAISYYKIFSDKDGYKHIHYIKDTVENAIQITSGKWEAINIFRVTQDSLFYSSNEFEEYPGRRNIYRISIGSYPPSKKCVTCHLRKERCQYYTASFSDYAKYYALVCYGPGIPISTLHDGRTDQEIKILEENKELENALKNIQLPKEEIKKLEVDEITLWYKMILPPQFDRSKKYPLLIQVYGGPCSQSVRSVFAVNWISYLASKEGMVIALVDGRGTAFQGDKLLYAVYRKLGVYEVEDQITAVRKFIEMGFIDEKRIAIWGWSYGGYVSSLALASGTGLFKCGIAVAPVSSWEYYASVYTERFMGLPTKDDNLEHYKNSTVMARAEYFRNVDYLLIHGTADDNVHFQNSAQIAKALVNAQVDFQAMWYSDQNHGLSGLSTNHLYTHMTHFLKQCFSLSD
Description: (§1) Specifically, the cell line was prepared by suspending in a FACS buffer solution at 1×10⁵ cells/100 μL, and treated with 1 μg each of T3.10, T3.01, T3.05, T3.06, T3.14, and T3.18. The cells were washed twice with a FACS buffer solution. The cells were stained with an anti-human IgG antibody (Biolegend). The negative control sample was stained only with an anti-human IgG antibody (Biolegend). The expression ratio of the stained cells was measured using BD LSR and analyzed using FlowJo software.

[2] = target: T1, human FAP on HEK293-hFAP cells; test: flow cytometry on HEK293-hFAP cells, 1 ug protein per 1x10^5 cells, anti-human IgG detection (axis TMEkine-PE)
Description: as §1

[3] = target: T2, recombinant human herpes virus entry mediator (HVEM) (human, UniProt Q92956 39-202); test: sandwich ELISA: plate coated with recombinant human HVEM 1 ug/mL, fusion protein from 1 nM in serial dilution, detected with biotinylated recombinant human FAP and streptavidin conjugate, OD 450 nm
T2 construct: neither construct is described; also called human HVEM; recombinant human HVEM protein (R&D systems)
T2 sequence (looked up): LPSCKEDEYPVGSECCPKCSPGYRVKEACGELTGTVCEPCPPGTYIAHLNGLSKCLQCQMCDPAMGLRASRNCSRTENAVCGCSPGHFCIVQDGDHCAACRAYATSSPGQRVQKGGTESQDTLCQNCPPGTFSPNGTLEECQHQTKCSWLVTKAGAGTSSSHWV
Description: Considering that LIGHT of the fusion protein must bind to the herpes virus entry mediator (HVEM) for the action, it was confirmed that T3.01 binds to the recombinant human HVEM, as follows: [0370] (i) The recombinant human HVEM protein (R&D systems) was suspended at 1 μg/mL, dispensed in a 96-well immune plate, and treated for 24 hours. [0371] (ii) The wells were washed with a wash solution, and then blocking was performed for 1 hour with 1% BSA (bovine serum albumin, Sigma) solution. [0372] (iii) The wells were washed with a wash solution, and then T3.01, T3.14, T3.16, T3.17, T3.18 and T3.10, or T3.05, T3.06, T3.04, T3.14 and T3.10 were suspended at 1 nM and diluted by serial dilution. The wells were treated with the diluted T3.01, T3.14, T3.16, T3.17, T3.18 and T3.10, or T3.05, T3.06, T3.04, T3.14 and T3.10 for 2 hours. [0373] (iv) The wells were washed with a wash solution, and then treated with the human recombinant FAP-biotin diluted at 0.5 μg/mL for 2 hours. [0374] (v) The wells were washed with a wash solution, and then treated with streptavidin-RP for 20 minutes. [0375] (vi) The wells were washed with a wash solution, and then treated with a substrate solution for 20 minutes. [0376] (vii) The wells were treated with a stop solution, and the absorbance was measured at 450 nm.

human LTβR on A375 cells = human LTβR on A375 cells (human, UniProt P36941 31-435); test: cell-based or functional assay
Chain of human LTβR on A375 cells (P36941 31-435): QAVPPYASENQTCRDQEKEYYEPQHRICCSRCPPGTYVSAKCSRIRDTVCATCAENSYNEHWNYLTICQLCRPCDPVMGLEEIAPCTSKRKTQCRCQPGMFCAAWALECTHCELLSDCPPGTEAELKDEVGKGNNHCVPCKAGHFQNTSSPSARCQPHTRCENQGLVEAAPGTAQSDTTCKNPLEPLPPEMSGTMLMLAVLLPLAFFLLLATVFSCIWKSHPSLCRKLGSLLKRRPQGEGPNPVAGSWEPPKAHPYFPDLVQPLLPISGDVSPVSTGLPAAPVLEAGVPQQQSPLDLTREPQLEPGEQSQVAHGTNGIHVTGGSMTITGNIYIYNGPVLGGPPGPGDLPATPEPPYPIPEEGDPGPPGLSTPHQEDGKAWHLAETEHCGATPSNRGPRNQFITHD

Binder	percent of cells bound [1] [%]	percent of cells in the positive gate [2] [%]	binding result [3]	IL-8 secretion of A375 cells, EC50 (FIG. 15a) (human LTβR on A375 cells) [nM]
B1	≥ 99	100		
B2	≥ 99	99.8	no binding (tested: 1000 pM)	
B3				3.79
B4			no binding (tested: 1000 pM)	
B5			no binding (tested: 1000 pM)	
